The values below come from patent publication US20040014194.

This data set deals with T1, Biotin-KSEVNL*DAEFRK-Fluorescein (SEQ ID NO: 3), peptide substrate derived from the sequence of "Swedish" amyloid protein peptide.
T1 chain: KSEVNLDAEFRK

B1: ProBACE (SEQ ID NO: 2), Sf9-derived soluble pro-β-secretase (protein)
chain: TQHGIRLPLRSGLGGAPLGLRLPRETDEEPEEPGRRGSFVEMVDNLRGKSGQGYYVEMTVGSPPQTLNILVDTGSSNFAVGAAPHPFLHRYYQRQLSSTYRDLRKGVYVPYTQGKWEGELGTDLVSIPHGPNVTVRANIAAITESDKFFINGSNWEGILGLAYAEIARPDDSLEPFFDSLVKQTHVPNLFSLQLCGAGFPLNQSEVLASVGGSMIIGGIDHSLYTGSLWYTPIRREWYYEVIIVRVEINGQDLKMDCKEYNYDKSIVDSGTTNLRLPKKVFEAAVKSIKAASSTEKFPDGFWLGEQLVCWQAGTTPWNIFPVISLYLMGEVTNQSFRITILPQQYLRPVEDVATSQDDCYKFAISQSSTGTVMGAVIMEGFYVVFDRARKRIGFAVSACHVHDEFRTAAVEGPFVTLDMEDCGYNIPQTDESTLE
Regarding B1, the “specificity constant (kcat/Km)” value came out at 1500 ± 100 M⁻¹ s⁻¹.

B2: mature BACE (SEQ ID NO: 1), Sf9-derived glycosylated human β-secretase (protein)
chain: ETDEEPEEPGRRGSFVEMVDNLRGKSGQGYYVEMTVGSPPQTLNILVDTGSSNFAVGAAPHPFLHRYYQRQLSSTYRDLRKGVYVPYTQGKWEGELGTDLVSIPHGPNVTVRANIAAITESDKFFINGSNWEGILGLAYAEIARPDDSLEPFFDSLVKQTHVPNLFSLQLCGAGFPLNQSEVLASVGGSMIIGGIDHSLYTGSLWYTPIRREWYYEVIIVRVEINGQDLKMDCKEYNYDKSIVDSGTTNLRLPKKVFEAAVKSIKAASSTEKFPDGFWLGEQLVCWQAGTTPWNIFPVISLYLMGEVTNQSFRITILPQQYLRPVEDVATSQDDCYKFAISQSSTGTVMGAVIMEGFYVVFDRARKRIGFAVSACHVHDEFRTAAVEGPFVTLDMEDCGYNIPQTDESTLE
In the case of B2, the “specificity constant (kcat/Km)” value stood at 1500 ± 100 M⁻¹ s⁻¹.
